The values that follow come from IntAct's records for PubMed 10230800.

Sequences and labels used below:
B1: Slowpoke-binding protein (Drosophila melanogaster (Fruit fly)), Q8IPH9 (parent)
chain: MFKFNKAAQQQRIDNRNSAVTGHDPFVRPPVPEKKVRNIMKKLHKANGLKRSNSAIEFDVSALTAANRRQIYSSNRSASSEQDNSDLSEHSEKSPLVSARLDNLARLFFSKSMPAETGSRDTIDSVLTTRPNIKYQYSALDSGNGIVERSPRERAQREKALNATQEWIQGANGRYEVIAHLDEIGSRHGKNWFLVTDASVRTDRLQTLLPLPPDCVAFEDLPPNECAREILMELLGSLHHPYIYPVLDLGFLRNSSYNYACLVTPFNSRGSLKDLIYKAQWNEPWARKYTRKPNGLPVSQVQRLGRQILEALLFLKERGFPLHGHLHSGNVILQNGAARLSGLENGLLGLSSRINAVMWSRSVTEIENVDIVCFGHLLYEMCTGQELTTPKPSMRVLEMELQHYPQIGQTRKQILEILGLIFEPPSGVCPSVEDLVLCDLFRSIDLRELRGPCFSTIKPSLSRSTLNLLQAVKKRQCASLGHSLSEANSPCTPPSTPHDRRTGVLPAPYEVFRMY
partner: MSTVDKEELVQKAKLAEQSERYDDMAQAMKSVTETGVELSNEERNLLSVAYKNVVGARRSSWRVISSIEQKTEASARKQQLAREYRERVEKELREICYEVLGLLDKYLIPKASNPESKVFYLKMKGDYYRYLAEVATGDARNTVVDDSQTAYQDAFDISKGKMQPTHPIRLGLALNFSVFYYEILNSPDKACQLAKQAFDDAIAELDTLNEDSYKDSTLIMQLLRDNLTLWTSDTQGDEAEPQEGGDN

The test covers variants of B1. To be noted: with 1433z_drome 14-3-3zeta.
For MFKFNKAAQQQRIDNRNSAVTGHDPFVRPPVPEKKVRNIMKKLHKANGLKRSNAAIEFDVSALTAANRRQIYSSNRSAASEQDNSDLSEHSEKSPLVSARLDNLARLFFSKSMPAETGSRDTIDSVLTTRPNIKYQYSALDSGNGIVERSPRERAQREKALNATQEWIQGANGRYEVIAHLDEIGSRHGKNWFLVTDASVRTDRLQTLLPLPPDCVAFEDLPPNECAREILMELLGSLHHPYIYPVLDLGFLRNSSYNYACLVTPFNSRGSLKDLIYKAQWNEPWARKYTRKPNGLPVSQVQRLGRQILEALLFLKERGFPLHGHLHSGNVILQNGAARLSGLENGLLGLSSRINAVMWSRSVTEIENVDIVCFGHLLYEMCTGQELTTPKPSMRVLEMELQHYPQIGQTRKQILEILGLIFEPPSGVCPSVEDLVLCDLFRSIDLRELRGPCFSTIKPSLSRSTLNLLQAVKKRQCASLGHSLSEANSPCTPPSTPHDRRTGVLPAPYEVFRMY [S54A;S79A], the “effect of a mutation on the interaction” value is “decreasing interaction strength”.
